The values below come from patent publication US20060286568A1.

One test concerns the target eGFP-EAAT3. In words: cell-based or functional assay.
Another test addresses eGFP-EAAT4. The experiment in a line: cell-based or functional assay.

Turning to “myc-tagged wildtype β-III spectrin (SP-WT) (from UniProt O15020 2-2390)”, the % of diffraction spots not moving (TIRF microscopy, HEK293 cells) with eGFP-EAAT3 came out at 58.7%. In the test with eGFP-EAAT4, the % of diffraction spots not moving (TIRF microscopy, HEK293 cells) came out at 94.2% and the diffraction spots moving at or near the membrane (TIRF microscopy, HEK293 cells) turned out to be 5%.
Take “myc-tagged mutant β-III spectrin with the 39 bp American SCA5 deletion (SP-Δ39; p.E532_M544del) (from UniProt O15020 2-2390)”: the % of diffraction spots not moving (TIRF microscopy, HEK293 cells) with eGFP-EAAT4 turned out to be 67.5%.
